The values that follow are results of earlier work, collected in publication PMC5700508.

The series addresses transferrin receptor (Homo sapiens) (UniProt P02786).

transferrin receptor (Homo sapiens), sequence (P02786 101-760): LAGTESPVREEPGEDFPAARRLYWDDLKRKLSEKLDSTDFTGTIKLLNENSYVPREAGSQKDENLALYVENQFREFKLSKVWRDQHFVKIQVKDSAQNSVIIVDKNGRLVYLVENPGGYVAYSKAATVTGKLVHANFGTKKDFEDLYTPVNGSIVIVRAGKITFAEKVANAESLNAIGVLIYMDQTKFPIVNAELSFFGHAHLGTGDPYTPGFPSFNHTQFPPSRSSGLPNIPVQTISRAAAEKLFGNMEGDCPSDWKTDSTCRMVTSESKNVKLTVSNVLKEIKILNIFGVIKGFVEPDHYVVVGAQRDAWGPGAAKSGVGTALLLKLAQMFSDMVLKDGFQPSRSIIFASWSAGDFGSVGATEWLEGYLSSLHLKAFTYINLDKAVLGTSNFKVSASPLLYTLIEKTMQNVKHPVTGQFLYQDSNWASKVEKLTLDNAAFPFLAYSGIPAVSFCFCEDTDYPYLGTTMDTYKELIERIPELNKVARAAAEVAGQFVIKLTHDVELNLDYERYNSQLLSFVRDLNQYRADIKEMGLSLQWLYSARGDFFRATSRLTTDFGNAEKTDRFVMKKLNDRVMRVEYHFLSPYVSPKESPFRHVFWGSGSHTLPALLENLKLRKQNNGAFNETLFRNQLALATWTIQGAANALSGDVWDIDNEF

Usually Kd stands for the concentration at which binding is half-saturated. Take T7 peptide: the Kd was 10 nM.
